Data on 1 substance can be found in patent US20240109963A1.

What is called EC50 is the concentration that produces a half-maximal response. Low values mean an effect from little substance, high ones a need for much substance.

In test [1] the target is full-length human Claudin 18.2 on MIA PaCa-2 cells (MIA PaCa-2+ Claudin 18.2) (human) (UniProt P56856). In words: cell-based or functional assay.
The target of test [2] is CD3 on Jurkat cells. Nature of the test: flow cytometry on Jurkat cells, CD3 binding (T cell) (summary table). (In general: A flow cytometer gives signals particle by particle.)
CD3 on Jurkat cells, sequence (P07766 23-207, chain 1 of 3): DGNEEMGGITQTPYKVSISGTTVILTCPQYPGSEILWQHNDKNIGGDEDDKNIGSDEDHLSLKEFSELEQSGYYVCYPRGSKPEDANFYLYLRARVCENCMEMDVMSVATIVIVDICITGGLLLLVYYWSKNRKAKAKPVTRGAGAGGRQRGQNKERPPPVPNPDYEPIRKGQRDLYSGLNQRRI
CD3 on Jurkat cells, sequence (P09693 23-182, chain 2 of 3, further chain): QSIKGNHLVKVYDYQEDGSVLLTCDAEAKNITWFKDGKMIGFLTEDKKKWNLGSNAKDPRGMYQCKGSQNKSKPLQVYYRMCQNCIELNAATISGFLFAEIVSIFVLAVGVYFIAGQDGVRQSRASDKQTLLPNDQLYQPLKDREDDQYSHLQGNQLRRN
CD3 on Jurkat cells, sequence (P04234 22-171, chain 3 of 3, further chain): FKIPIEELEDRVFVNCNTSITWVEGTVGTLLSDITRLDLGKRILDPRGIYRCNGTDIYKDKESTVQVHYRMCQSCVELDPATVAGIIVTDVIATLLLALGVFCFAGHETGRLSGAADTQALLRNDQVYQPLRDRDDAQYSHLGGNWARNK
Test [3] deals with Claudin 18.2 on CHO cells (CHO+ Claudin 18.2) (UniProt P56856). In words: flow cytometry on Claudin 18.2-expressing CHO cells (summary table).
Claudin 18.2 on CHO cells (CHO+ Claudin 18.2), sequence (P56856 other isoform, or with tags, fused parts or gaps limits assumed): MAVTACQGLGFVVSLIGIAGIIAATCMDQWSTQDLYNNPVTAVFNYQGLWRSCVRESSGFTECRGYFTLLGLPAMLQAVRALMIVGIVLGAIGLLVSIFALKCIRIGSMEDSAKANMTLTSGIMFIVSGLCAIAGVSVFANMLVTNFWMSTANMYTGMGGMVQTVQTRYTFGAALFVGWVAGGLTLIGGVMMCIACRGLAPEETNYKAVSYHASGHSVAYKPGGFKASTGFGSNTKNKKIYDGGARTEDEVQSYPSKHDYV

full-length human Claudin 18.2 on MIA PaCa-2 cells (MIA PaCa-2+ Claudin 18.2) (human), sequence (P56856 other isoform, or with tags, fused parts or gaps limits assumed): as above

In the case of AMG910 analog (bispecific antibody), in test [1], the T cell activation EC50 (CD69-positive cells) stood at 0.0345 µg/mL and the T cell activation EC50 (CD69-positive cells), unpurified supernatant amounted to 0.0577 µg/mL. In test [2], this substance yielded an EC50 of 0.485 µg/mL. In test [3], this substance had an EC50 of 0.047 µg/mL.
